Source: US20140294898A1 (published 2014)
Positions of bridges follow the written chain, without caps; N, C: chain ends. Non-standard residues stand in square brackets, D forms with d. Oic = O=C(O)[C@@H]1C[C@@H]2CCCC[C@@H]2N1; Hyp = O=C(O)[C@@H]1C[C@@H](O)CN1; 4Pal = N[C@@H](Cc1ccncc1)C(=O)O; NMeNle = CCCC[C@H](NC)C(=O)O; Pro(4-NH2) = 4-aminoproline; Pro(4-Ph) = 4-phenylproline; Pip = O=C(O)[C@@H]1CCCCN1; NMeA = CN[C@@H](C)C(=O)O; dNMeA = CN[C@H](C)C(=O)O; Sar = CNCC(=O)O

Legend:
[1] = target: T1, human PD-L1 (human, UniProt Q9NZQ7 19-239, limits assumed); experiment: cell binding assay, inhibition of Hu PD-L1/PD-1 binding
T1 construct: also called Hu PD-L1; hPD-L1

[2] = target: T2, hPDL1(19-239)-TVMV-His (human, UniProt Q9NZQ7 19-239); experiment: HTRF competition, PD-1-Ig binding to PD-L1-His
T2 construct: The text says amino acids 18-239, the construct name says 19-239; Expressed in HEK293T cells; Used at 10 nM final in the HTRF assay; also called PD-L1-His; PD-L1-TVMV-His
Protocol: All binding studies were performed in an HTRF assay buffer consisting of dPBS supplemented with 0.1% (w/v) bovine serum albumin and 0.05% (v/v) Tween-20. […] PD-L1 fusion proteins from either human, cynomologous macaques, or mouse were used. HTRF detection was achieved using europium crypate-labeled anti-Ig monoclonal antibody (1 nM final) and allophycocyanin (APC) labeled anti-His monoclonal antibody (20 nM final). Antibodies were diluted in HTRF detection buffer and 5 μl was dispensed on top of binding reaction. The reaction was allowed to equilibrate for 30 minutes and signal (665 nm/620 nm ratio) was obtained using an EnVision fluorometer. […]
HTRF Experiments were performed essentially as outlined supra. Variant macrocyclic peptides were created as outlined herein.

T2 sequence (Q9NZQ7 other isoform, or with tags, fused parts or gaps limits assumed): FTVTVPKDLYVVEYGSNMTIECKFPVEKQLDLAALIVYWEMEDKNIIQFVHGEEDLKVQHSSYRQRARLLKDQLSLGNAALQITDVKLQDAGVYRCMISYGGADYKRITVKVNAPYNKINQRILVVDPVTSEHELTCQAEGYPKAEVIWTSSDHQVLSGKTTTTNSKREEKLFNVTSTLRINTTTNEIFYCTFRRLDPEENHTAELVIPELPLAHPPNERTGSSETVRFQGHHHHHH
T1 sequence (Q9NZQ7 19-239 limits assumed): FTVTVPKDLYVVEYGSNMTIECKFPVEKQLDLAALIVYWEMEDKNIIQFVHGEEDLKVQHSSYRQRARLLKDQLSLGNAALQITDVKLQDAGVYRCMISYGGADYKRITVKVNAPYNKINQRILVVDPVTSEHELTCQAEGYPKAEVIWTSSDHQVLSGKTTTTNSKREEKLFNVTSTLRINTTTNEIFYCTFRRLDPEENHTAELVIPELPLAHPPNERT

IC50 [1] [nM]	IC50 [2] [nM]	Binder
223		{CH2CO}-F[NMeA]APHL[Sar]WSW[NMeNle][NMeNle]RCG-NH2 (thioether N-14; SMILES CCCC[C@H]1C(=O)N(C)[C@@H](CCCC)C(=O)N[C@@H](CCCNC(=N)N)C(=O)N[C@H](C(=O)NCC(N)=O)CSCC(=O)N[C@@H](Cc2ccccc2)C(=O)N(C)[C@@H](C)C(=O)N[C@@H](C)C(=O)N2CCC[C@H]2C(=O)N[C@@H](Cc2c[nH]cn2)C(=O)N[C@@H](CC(C)C)C(=O)N(C)CC(=O)N[C@@H](Cc2c[nH]c3ccccc23)C(=O)N[C@@H](CO)C(=O)N[C@@H](Cc2c[nH]c3ccccc23)C(=O)N1C, macrocyclic peptide, Formula I series; also called Compound 8) [Compound No. 8]
82		{CH2CO}-F[NMeA]NPAL[Sar]WSW[NMeNle][NMeNle]RCG-NH2 (thioether N-14; SMILES CCCC[C@H]1C(=O)N(C)[C@@H](CCCC)C(=O)N[C@@H](CCCNC(=N)N)C(=O)N[C@H](C(=O)NCC(N)=O)CSCC(=O)N[C@@H](Cc2ccccc2)C(=O)N(C)[C@@H](C)C(=O)N[C@@H](CC(N)=O)C(=O)N2CCC[C@H]2C(=O)N[C@@H](C)C(=O)N[C@@H](CC(C)C)C(=O)N(C)CC(=O)N[C@@H](Cc2c[nH]c3ccccc23)C(=O)N[C@@H](CO)C(=O)N[C@@H](Cc2c[nH]c3ccccc23)C(=O)N1C, macrocyclic peptide, Formula I series; also called Compound 10) [Compound No. 10]
35		{CH2CO}-F[NMeA]NPHL[NMeA]WSW[NMeNle][NMeNle]RCG-NH2 (thioether N-14; SMILES CCCC[C@H]1C(=O)N(C)[C@@H](CCCC)C(=O)N[C@@H](CCCNC(=N)N)C(=O)N[C@H](C(=O)NCC(N)=O)CSCC(=O)N[C@@H](Cc2ccccc2)C(=O)N(C)[C@@H](C)C(=O)N[C@@H](CC(N)=O)C(=O)N2CCC[C@H]2C(=O)N[C@@H](Cc2c[nH]cn2)C(=O)N[C@@H](CC(C)C)C(=O)N(C)[C@@H](C)C(=O)N[C@@H](Cc2c[nH]c3ccccc23)C(=O)N[C@@H](CO)C(=O)N[C@@H](Cc2c[nH]c3ccccc23)C(=O)N1C, macrocyclic peptide, Formula I series; also called Compound 13) [Compound No. 13]
242		{CH2CO}-F[NMeA]NPHL[dNMeA]WSW[NMeNle][NMeNle]RCG-NH2 (thioether N-14; SMILES CCCC[C@H]1C(=O)N(C)[C@@H](CCCC)C(=O)N[C@@H](CCCNC(=N)N)C(=O)N[C@H](C(=O)NCC(N)=O)CSCC(=O)N[C@@H](Cc2ccccc2)C(=O)N(C)[C@@H](C)C(=O)N[C@@H](CC(N)=O)C(=O)N2CCC[C@H]2C(=O)N[C@@H](Cc2c[nH]cn2)C(=O)N[C@@H](CC(C)C)C(=O)N(C)[C@H](C)C(=O)N[C@@H](Cc2c[nH]c3ccccc23)C(=O)N[C@@H](CO)C(=O)N[C@@H](Cc2c[nH]c3ccccc23)C(=O)N1C, macrocyclic peptide, Formula I series; also called Compound 14) [Compound No. 14]
1910		{CH2CO}-F[NMeA]NPHL[Sar]ASW[NMeNle][NMeNle]RCG-NH2 (thioether N-14; SMILES CCCC[C@H]1C(=O)N(C)[C@@H](CCCC)C(=O)N[C@@H](CCCNC(=N)N)C(=O)N[C@H](C(=O)NCC(N)=O)CSCC(=O)N[C@@H](Cc2ccccc2)C(=O)N(C)[C@@H](C)C(=O)N[C@@H](CC(N)=O)C(=O)N2CCC[C@H]2C(=O)N[C@@H](Cc2c[nH]cn2)C(=O)N[C@@H](CC(C)C)C(=O)N(C)CC(=O)N[C@@H](C)C(=O)N[C@@H](CO)C(=O)N[C@@H](Cc2c[nH]c3ccccc23)C(=O)N1C, macrocyclic peptide, Formula I series; also called Compound 15) [Compound No. 15]
13		{CH2CO}-F[NMeA]NPHL[Sar]WAW[NMeNle][NMeNle]RCG-NH2 (thioether N-14; SMILES CCCC[C@H]1C(=O)N(C)[C@@H](CCCC)C(=O)N[C@@H](CCCNC(=N)N)C(=O)N[C@H](C(=O)NCC(N)=O)CSCC(=O)N[C@@H](Cc2ccccc2)C(=O)N(C)[C@@H](C)C(=O)N[C@@H](CC(N)=O)C(=O)N2CCC[C@H]2C(=O)N[C@@H](Cc2c[nH]cn2)C(=O)N[C@@H](CC(C)C)C(=O)N(C)CC(=O)N[C@@H](Cc2c[nH]c3ccccc23)C(=O)N[C@@H](C)C(=O)N[C@@H](Cc2c[nH]c3ccccc23)C(=O)N1C, macrocyclic peptide, Formula I series; also called Compound 16) [Compound No. 16]
28		{CH2CO}-F[NMeA]NPHL[Sar]WSW[NMeNle][NMeNle]ACG-NH2 (thioether N-14; SMILES CCCC[C@H]1C(=O)N(C)[C@@H](CCCC)C(=O)N[C@@H](C)C(=O)N[C@H](C(=O)NCC(N)=O)CSCC(=O)N[C@@H](Cc2ccccc2)C(=O)N(C)[C@@H](C)C(=O)N[C@@H](CC(N)=O)C(=O)N2CCC[C@H]2C(=O)N[C@@H](Cc2c[nH]cn2)C(=O)N[C@@H](CC(C)C)C(=O)N(C)CC(=O)N[C@@H](Cc2c[nH]c3ccccc23)C(=O)N[C@@H](CO)C(=O)N[C@@H](Cc2c[nH]c3ccccc23)C(=O)N1C, macrocyclic peptide, Formula I series; also called Compound 22) [Compound No. 22]
19		{CH2CO}-W[NMeA]NPHL[Sar]WSW[NMeNle][NMeNle]RCG-NH2 (thioether N-14; SMILES CCCC[C@H]1C(=O)N(C)[C@@H](CCCC)C(=O)N[C@@H](CCCNC(=N)N)C(=O)N[C@H](C(=O)NCC(N)=O)CSCC(=O)N[C@@H](Cc2c[nH]c3ccccc23)C(=O)N(C)[C@@H](C)C(=O)N[C@@H](CC(N)=O)C(=O)N2CCC[C@H]2C(=O)N[C@@H](Cc2c[nH]cn2)C(=O)N[C@@H](CC(C)C)C(=O)N(C)CC(=O)N[C@@H](Cc2c[nH]c3ccccc23)C(=O)N[C@@H](CO)C(=O)N[C@@H](Cc2c[nH]c3ccccc23)C(=O)N1C, macrocyclic peptide, Formula I series; also called Compound 25) [Compound No. 25]
3		{CH2CO}-Y[NMeA]NPHL[Sar]WSW[NMeNle][NMeNle]RCG-NH2 (thioether N-14; SMILES CCCC[C@H]1C(=O)N(C)[C@@H](CCCC)C(=O)N[C@@H](CCCNC(=N)N)C(=O)N[C@H](C(=O)NCC(N)=O)CSCC(=O)N[C@@H](Cc2ccc(O)cc2)C(=O)N(C)[C@@H](C)C(=O)N[C@@H](CC(N)=O)C(=O)N2CCC[C@H]2C(=O)N[C@@H](Cc2c[nH]cn2)C(=O)N[C@@H](CC(C)C)C(=O)N(C)CC(=O)N[C@@H](Cc2c[nH]c3ccccc23)C(=O)N[C@@H](CO)C(=O)N[C@@H](Cc2c[nH]c3ccccc23)C(=O)N1C, macrocyclic peptide, Formula I series; also called Compound 30) [Compound No. 30]
	33	{CH2CO}-[4Pal][NMeA]NPHL[Sar]WSW[NMeNle][NMeNle]RCG-NH2 (thioether N-14; SMILES CCCC[C@H]1C(=O)N(C)[C@@H](CCCC)C(=O)N[C@@H](CCCNC(=N)N)C(=O)N[C@H](C(=O)NCC(N)=O)CSCC(=O)N[C@@H](Cc2ccncc2)C(=O)N(C)[C@@H](C)C(=O)N[C@@H](CC(N)=O)C(=O)N2CCC[C@H]2C(=O)N[C@@H](Cc2c[nH]cn2)C(=O)N[C@@H](CC(C)C)C(=O)N(C)CC(=O)N[C@@H](Cc2c[nH]c3ccccc23)C(=O)N[C@@H](CO)C(=O)N[C@@H](Cc2c[nH]c3ccccc23)C(=O)N1C) [Compound No. 39]
	34	{CH2CO}-F[NMeA]N[Pip]HL[Sar]WSW[NMeNle][NMeNle]RCG-NH2 (thioether N-14; SMILES CCCC[C@H]1C(=O)N(C)[C@@H](CCCC)C(=O)N[C@@H](CCCNC(=N)N)C(=O)N[C@H](C(=O)NCC(N)=O)CSCC(=O)N[C@@H](Cc2ccccc2)C(=O)N(C)[C@@H](C)C(=O)N[C@@H](CC(N)=O)C(=O)N2CCCC[C@H]2C(=O)N[C@@H](Cc2c[nH]cn2)C(=O)N[C@@H](CC(C)C)C(=O)N(C)CC(=O)N[C@@H](Cc2c[nH]c3ccccc23)C(=O)N[C@@H](CO)C(=O)N[C@@H](Cc2c[nH]c3ccccc23)C(=O)N1C) [Compound No. 44]
	105	{CH2CO}-F[NMeA]N[Oic]HL[Sar]WSW[NMeNle][NMeNle]RCG-NH2 (thioether N-14; SMILES CCCC[C@H]1C(=O)N(C)[C@@H](CCCC)C(=O)N[C@@H](CCCNC(=N)N)C(=O)N[C@H](C(=O)NCC(N)=O)CSCC(=O)N[C@@H](Cc2ccccc2)C(=O)N(C)[C@@H](C)C(=O)N[C@@H](CC(N)=O)C(=O)N2[C@@H](C[C@@H]3CCCC[C@@H]32)C(=O)N[C@@H](Cc2c[nH]cn2)C(=O)N[C@@H](CC(C)C)C(=O)N(C)CC(=O)N[C@@H](Cc2c[nH]c3ccccc23)C(=O)N[C@@H](CO)C(=O)N[C@@H](Cc2c[nH]c3ccccc23)C(=O)N1C) [Compound No. 45]
	873	{CH2CO}-F[NMeA]N[Pro(4-Ph)]HL[Sar]WSW[NMeNle][NMeNle]RCG-NH2 (thioether N-14) [Compound No. 46]
	27	{CH2CO}-F[NMeA]N[Hyp]HL[Sar]WSW[NMeNle][NMeNle]RCG-NH2 (thioether N-14; SMILES CCCC[C@H]1C(=O)N(C)[C@@H](CCCC)C(=O)N[C@@H](CCCNC(=N)N)C(=O)N[C@H](C(=O)NCC(N)=O)CSCC(=O)N[C@@H](Cc2ccccc2)C(=O)N(C)[C@@H](C)C(=O)N[C@@H](CC(N)=O)C(=O)N2C[C@H](O)C[C@H]2C(=O)N[C@@H](Cc2c[nH]cn2)C(=O)N[C@@H](CC(C)C)C(=O)N(C)CC(=O)N[C@@H](Cc2c[nH]c3ccccc23)C(=O)N[C@@H](CO)C(=O)N[C@@H](Cc2c[nH]c3ccccc23)C(=O)N1C) [Compound No. 47]
	40	{CH2CO}-F[NMeA]N[Pro(4-NH2)]HL[Sar]WSW[NMeNle][NMeNle]RCG-NH2 (thioether N-14) [Compound No. 48]
